Assay: label from the status in PepcDB records

Sequence	protein production
VNSVAARVTELTGREVAAVAERGHSHRWHLYRVELADGTPLFVKALPDDAPALDGLFRAEALGLDWLGRSFGSPVPQVAGWDDRTLAMEWVDERPPTPEAAERFGHQLAAMHLAGAESFGATWDGYIGPLPMDNTPRSTWPEFYAEQRILPYLRRAADRGALTPGDVRLVEKVLDALDHLAGDPEPPARIHGDLWNGNVLWQDDGAVVIDPAAHGGHREADLAMLALFGLPYLDRVRDAYNEVAPLAEGWRARIPLHQLHPLLVHVCLFGAAYRTTLVDTARAALRA	not failed
MDPSQFNPTYIPGSPQMLTEENSRDDSGASQISSETLIKNLSNLTINASSESVSPLSEALLRRESVGAAVLREIEDEWLYSRRGVRTLLSVQREKMARLRYMLLGGVRTHERRPTNKEPKGVKKESRPFKCPCSFCVSNGWDPSENARIGNQDTKPLQP	failed
MTVAYIAIGSNLASPLEQVNAALKALGDIPESHILTVSSFYRTPPLGPQDQPDYLNAAVALETSLAPEELLNHTQRIELQQGRVRKAERWGPRTLDLDIMLFGNEVINTERLTVPHYDMKNRGFMLWPLFEIAPELVFPDGEMLRQILHTRAFDKLNKW	failed
MEFMHDKSAEDEGITLVSEPMDTTVATHESRRNAAAFSSVVAPTTDDEIVHERFDPAFEVQADFYGFDENAPPLPLPEEYYSELPLPEEDRQYIPPPPALIPVEPETTFRRPRTRQQRRTESQLVQPVSVATYEDSKASLRVLMQQLPPPGDNVVARIPKRTHRVVRTLPPTFGTTKREENFYGFSKTAISWRKTRASWRHFCLLING	failed
MELIVPILAAAYLAVLLVKTAAALWVVRGERLRPARSAVATPADVAILQPILGGDAHLQEVLAANVQALPQAQFIWLLDTDDGPGNAAADAVVAQYPQLRIARMLVPPAPPGINPKAWKLDYALPHIDAPVSLILDDDAHLGDRALSQLLLDLAHADVVTALPYYRDSATLAGRLLAQFVNNNAALTYLGWLPFAAPLTINGMCYAARTEQLRRWGGFTALLEQLTDDLAFATLVRDRGGRLWQSTAPVAMRTDMPDLRGYVRQMHRWMLFASILLGRQRLRVRSAIGVLQGLPPVLLLAMLVCACVQHTWPAALCVLIVLLARALLLCGVQWRVTGAVRHRLLLSLCAECLQPLHLLHAALVRTIRWRTRRYRVLPDGCFRAE	failed
MARNKGWVGATCCFLLFTVVFLSQKIEVSEVAVNDGLRGSPGMLLFLLPGMVACFLSARGRLLYPLFGALAAMPVCLLLLHLWNTPMRSFWQELAYVMSAVFWCVLGAMGVLCLRSLYRRYLR	not failed
MSFVKKTKNFFGLDGEADPYMEHSDAYYDEPRYEPAPAYSAPRYEEPIYASARPRAARPMPTHIVPVRLLTYSDAAIKVGDPFRDGDAVVFDMSDMHKGEAKRIIDFAAGLCFALRGQMRKLDGRIFALVPESASVDENDLKHAAGLIHLEHHHHHH	failed
MPKTKLTSPPFKILKCTECDACINVPSILQSNEQAECPRCHHLLASGTRWSLHRCAMIALSILILMPFSLNYPLLSLHLLGIKIDASIWDGIWKMAVGGYEYTAFMIFICAVVMPITFALLVIMLWLAKIFQIKPRSVLLFLGYIKAWVMFDVYLVALGVTIFKVREYATLEINIYLIPFIFTALLTTLLFIKLNLSALWQEFYPECTSVYTKQAVELCPACHYTFTQKSIHYDHQQKICCPRCQSPLNTSDKLKLQATWATLIAGIIMLFPANLLPISGIYLTGALSEDTLISGVISFVKSGSYFVAFVVFFASIFVPISKIFIMLYLLACVHFKWQHSIKWQMRLLHLVHFVGRWSMLDLFVLALMMSLVTRGEIINFTVGPGAFYFGAAVFCTMLSTSQFDSKLIWKIYDREK	failed
MEFRLLHISDLHMIPGQETKKAWVSALDSLSPDLVINTGDNLSDEKAVPDVLRALGPLMNRPGAFVFGTNDYWAPRPVNPFGYLFGKKREVSHIDLPWRAMRAAFIEHGWQDANQKRLEFQVGSVRLAISGVDDPHHDLDDYTEIAGAPNVDADLSIALLHAPEPRVLAQFEADGYQLSLSGHTHGGQLEHHHHHH	failed
DTRWLAFNIQRAVFSDRRVREAITLAFDFEWMNKALFYNAWSRTNSYFQNTEYAARNYPDAAELVLLAPMKKDLPPEVFTQIYQPPVSKGDGYDRDNLLKADKLLNEAGWVLKGQQRVNATTGQPLSFELLLPASSNSQWVLPFQHSLQRLGINMDIRKVDNSQITNRMRNRDYDMMPRLWRAMPWPSSDLQISWSSEYINSTYNAPGVQSPVIDSLINQIIAAQGNKEKLLPLGRALDRVLTWNYYMLPMWYMA	failed
MGHHHHHHSHMSNPIQAEVLKRVAEVFDQHVPFHNLLGLDIKRYDIDGVEVAINMKPELIGNIHQQILHGGVTATVLDVVGGLTAFAGLVASRDDWTIEELQQRLQTLGTIDMRVDYLRPGRGQIFTGTGSVIRAGNRVSVCRMELHNEQGTHIAFGTGTYMVG	not failed
MASKSGSGGLREPPNEQAVLNMYEGKRSELSQIYSNITDLEMQVSEHSLVINAIQPLDQSRKCFRMIGGVLVERTIKEVLPAVQRNKDGLEEVVRKLYETLEKKKKDLTEFEAKYKIRITKQEDNKEGGNKKEGNAQGVLVGAASSSQ	failed
MKVSCCFGTCLKHLDPACVKTSRRIAILHSALPRQRPPPALECPAFSFGDSDMTDQRKGSDAEPTTHFGFKNVPESQKAEKVAEVFHSVAAKYDLMNDVLSGGMHRLWKRFTIELSGVRAGNRVLDIAGGTGDLTKRFSHLVGPTGQVVLADINESMLKVGRDRLLDLGVAGNVEFVQADAEKLPFPDNHFDCVTIAFGLRNVTHKEDALRSMLRVLKPGGRLLVLEFSKPTNALMSKVYDAYSFAFMPLAGKLITNDSESYRYLAESIRMHPNQETLKSMMVEAGFDRVTYHNMTAGIVALHRGIKP	failed
MEVFKVFATLSLVDMISGPLGSVSEGMELLGGKVSALGSRMGKLAVAMAPVALAAGVLLGTLGLAAREAIAFESAMADVAKVVNFESAGELKAMSATILDMSTRIPMAADGLAAIVAAAAQSGVARQDLTDFAEQAAKMGVAFDLTGDQAGKMMADWRAGMNLTLPRVYALADATNHLSNNMNATAPALGEVIQRVGAVGMAAGLSETQVAALGAAFLSAGASPEIASTALKKFTSTLVRGSALSKDAQAAFGALGFSVTQMAKDMQTDAQGTIFKVLQALADKPKELQMSLLTEMFGEEALGAIAPLLANMGNLSQAFDLVGDSAAYAGSMQGEFEARSRTTENALLLLGNKAKALMIVIGSYFLPVIGAVADALGGFVDMLRAAAQTAGGEFALKLVAGVSAAIVAATALSGALWLLSAAGPMLAAALAPLKAALLGLSWPMWAIIAVVGALYLAYKTNFAGIGDTLRRWWQTVSLVVRGVMAVFSTLTDGVGEIRGELATEIRAAGLEGLVASVGSVVYRVQAFFRGLWDGVSGVGDRLAVVFGPTLDRLGAVFGQLFTVLGGLGEAFFGVSAASDVSGWERFGNVIGSVVCGAVEILATAFTALLAPIEMAAGMLQFVLDLFNGVSLFDAGAKLLGTFVDGIMSMVSAPFEAAKKALDMVGKLLPHSDADEGPLSTLTASGMATLSTMGEGMTAAAPGLHDTLETALGDAVAPQIEAPATADVQPGRKTARAAQGRGVTITIGTLNLPGVTNAQDFVAQLQDFVAAYDGVPEGGLV	failed
MIEESVMLRQHNLRLRKYDYVLGRLFVALPIGGLVVAVLLLFADWRVGRFELAMCLAMYLFTMMGIEVGFHRCFAHRAFKAGTGLQWVLAVAGSMGGHGPLIWWVTTHRRHHRFVDTDQDPHTPNKDLRGPWRNFKSFLYGYVGWTMDTDVKLQEGWQRYGVDLYKNSILFKVHARFALIALLGLLLPTVAGALFHRTAEGALLGLLWGGLVPICLTQHLFWMINAFGHRIGAKPFSGRIVGDSRNCWWLALPTFGQGWHNNHHADPGCATTRKTWWQLDPGAWLIRLFERLGWASAVKWK	failed
MSLKNMADLSYVNIFTRDIVAMSAFYQQVFGFQEIESIRSPIFRGLDTGKSCIGFNAHEAYELMQLAQFSETSGIKFLLNFDVDTKEAVDKLVPVAIAAGATLIKAPYETYYHWYQAVLLDPERNVFRINNVLEGHHHHHH	not failed
MPYVFSFKMPQEQGQMFQYYPVYMVLPWEQPQQTVPRSPQQTRQQQYEEQIPFYAQFGYIPQLAEPAISGGQQQLAFDPQLGTAPEIAVMSTGEEIPYLQKEAINFRHDSAGVFMPSTSPKPSTTNVFTSAVDQTITPELPEEKDKTDSLREP	failed
MLASVRVNQLQRLLLSARRLSSSPIIPPSRLLHQRLFSTSDTDASAASFSSSHPKIQTLEGKASNKSRSTSSTTSLNEDELAKFSAIADTWWHSEGPFKPLHQMNPTRLAFIRSTLCRHFSKDPSSAKPFEGLKFIDIGCGGGLLSEPLARMGATVTGVDAVDKNVKIARLHADMDPVTSTIEYLCTTAEKLADEGRKFDAVLSLEVIEHVANPAEFCKSLSALTIPNGATVLSTINRTMRAYASTIVGAEYILRWLPKGTHQWSSFVTPEEMSMILQRASVDVKEIAGFVYNPITGRWLLSDDISVNYIAYGTKRKDLGDI	failed
MSIHVNEANLTFHLQTDHTSYIFQIMKNGEAGQIYYGPRIHVQPTYQNLMSQEWRDATPSLNEENPNFQPATIKAEYASLGKGDFRQPAFQVTQANGSRITELTYDHYQLLTGKQRLANLPSTFDDTDDDAQTLVVSFNDRITGLALDLNYSIFPHQDVIVKSAKFTNPSSEKLVLNRALSSQLDLPDANYDLIQFSGTWARERHLYRHPLRPGMQSISSLRMASSHQQNPFMMLARPQTTDEQGAVFGFNLVYSGNFLDAIEVDQYSTSRILTGINPDEFGWNLAPQATFQTPEAILSYTSAGMNQLSQQMASFYQQHLVNPRFAHEERPVLINNWEATYFDFNEAKLMTIVNQAKRLGIEMFVLDDGWFGHRDDDTTSLGDWFVDQRKFPDGIEHFSQAVHQQGMKFGLWFEPEMVSVDSDLYQQHPDWLIHAPKSTPTPGRHQFVLDMARPEVVDYLFKLMSQMIESANLDYIKWDMNRYATEMFSSRLTSDQQLELPHRYILGVYQLYARLTQAYPNVLFESCASGGGRFDLGMMYYAPQAWTSDDTDAAERLLIQFGTSYGYPQAMMGAHVSAVPNDQMGRITSLKTRGAVAFFGDLGYELDITKMAPTELDQVKKQVAFYKCYRQLFQFGKFYRIDSPFVEDGNVTSWQVVSDDQKQAIAARYQLLNHPNAPYTRFYFKGLRPNQRYQINDDPSTYYGDELMNAGYFVPTILADGQESKDFYTQLFVVTAILEHHHHHH	not failed
MVLPPVFYLARMWLMSQDSRVFFRIFFGIGLVLILISVVIFYNQFTYSKDAIHTEGVIVDTVWHSSHSHRTGKNGSWYPVVAFRPTPDYTLIFNSSIGSDFYEDSEGDKVNVYYSPGHPEKAEINNPWVNFFKWGFIGIMGVIFISVGLLISMPSSKKTRRKRKSRP	failed
MNDVASTKSRVAAVSVVASATMAAAKFAVGIAIGSLALISEALHSSIDLVATIITWFVVRISDRPADDAHHYGHGKIESLSALGVIAMLYVLAGGILVEAYSRLREGAAPPTFSYLAFVILGVDIVVNLWRAWALHRTAVATKSQALAADALHFASDVLGSFAVIAGLALAAAGFHWGDAAAAIGVAVMISLLGLRLGRSTIQTLLDRAPEGVSDKAREAIGAVPGVVGVERLRARMVGPTHFIDALVEVPRTYPIDRIDEIKRKAQESMSEIFGDADLTFTAIPVARDNESVRERIMVIARNSGLAVHHVTVHDLGGHKLIVSIDLEVDGNMPLIEAHDIAHKLEDHIREDFGADVEVDTHIEPLEPELPQGSDAEPARVEEIRLALRRLTHDGAIHDVHSVRVRDTDAGEIVNFHCYADPSMSVISVHDHVDEIERKLRAKFPSVKRVISHAEPPNAD	failed

Reference: a protein production outcome set (Wang et al. 2014)
